These results are taken from article PMC5416842, “The ribosome biogenesis factor yUtp23/hUTP23 coordinates key interactions in the yeast and human pre-40S particle and hUTP23 contains an essential PIN domain” (Nucleic Acids Research, 2017).

First the molecules themselves.
B2: GST-tagged human hUTP23 (natural protein, UniProt Q9BRU9 1-249, looked up)
chain: MKITRQKHAKKHLGFFRNNFGVREPYQILLDGTFCQAALRGRIQLREQLPRYLMGETQLCTTRCVLKELETLGKDLYGAKLIAQKCQVRNCPHFKNAVSGSECLLSMVEEGNPHHYFVATQDQNLSVKVKKKPGVPLMFIIQNTMVLDKPSPKTIAFVKAVESGQLVSVHEKESIKHLKEEQGLVKNTEQSRRKKRKKISGPNPLSCLKKKKKAPDTQSSASEKKRKRKRIRNRSNPKVLSEKQNAEGE
notes: hUTP23, human; open reading frame amplified from human cDNA; also called GST-hUTP23
B5: protein-A-His-tagged yUtp23 (natural protein, S. cerevisiae, UniProt Q12339 1-254, looked up)
chain: MRQKRAKSYRKQLLVYSHTFKFREPYQVLVDNQLVLECNNSNFNLPSGLKRTLQADVKVMITQCCIQALYETRNDGAINLAKQFERRRCNHSFKDPKSPAECIESVVNISGANKHRYVVASQDIDLRRKLRTVPGVPLIHLTRSVMVMEPLSTASAKASKITEEQKLYKGLNDPNIEKLQESGDGSGKESITKKRKLGPKAPNPLSVKKKKKVNSPSDEVKDKEDTSKEKKKRRRRKHKSNTNVPVSNGTTAAQ
notes: yUtp23, S. cerevisiae; open reading frame amplified from yeast genomic DNA

For data set [1], the system named is GST-yUtp23 WT (Saccharomyces cerevisiae). Description: EMSA. Particulars: 100-1000 nM protein; EMSA: 10 mM Tris/HCl pH 7.6, 75 mM NaCl, 2 mM DTT, 100 ng/ul BSA, 0.8 U/ul RNasin, 4.5% glycerol, 0.05% Tween20, 500 ng/ul E. coli tRNA; 10 min 30 C then 10 min. (Mobility shift assays separate free from complexed probe on a gel.)
Data set [2] addresses T1, GST-yUtp23 WT (Saccharomyces cerevisiae) (UniProt Q12339).
T1 sequence: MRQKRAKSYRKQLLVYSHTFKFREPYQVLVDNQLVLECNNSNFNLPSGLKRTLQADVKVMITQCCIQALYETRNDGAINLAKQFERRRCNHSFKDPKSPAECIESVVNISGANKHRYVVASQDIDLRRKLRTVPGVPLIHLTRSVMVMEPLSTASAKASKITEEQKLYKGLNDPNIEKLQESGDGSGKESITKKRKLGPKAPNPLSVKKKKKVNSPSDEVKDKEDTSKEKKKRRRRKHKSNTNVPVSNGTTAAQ
Description: EMSA. The conditions noted are these: EMSA: 10 mM Tris/HCl pH 7.6, 75 mM NaCl, 2 mM DTT, 100 ng/ul BSA, 0.8 U/ul RNasin, 4.5% glycerol, 0.05% Tween20, 500 ng/ul E. coli tRNA; 10 min 30 C then 10 min.

The target of data set [3] is T1, GST-yUtp23 WT (Saccharomyces cerevisiae). The experiment in a line: competition. The conditions noted are these: EMSA: 10 mM Tris/HCl pH 7.6, 75 mM NaCl, 2 mM DTT, 100 ng/ul BSA, 0.8 U/ul RNasin, 4.5% glycerol, 0.05% Tween20, 500 ng/ul E. coli tRNA; 10 min 30 C then 10 min.
The target in data set [4] is B5. Description: pull-down; GST-tagged yeast bait proteins immobilised on glutathione sepharose (pre-blocked with BSA), incubated with recombinant protein-A-His-tagged yUtp23 for 1 h at 4°C in Buffer NB (20 mM Tris/HCl pH 7.6, 150 mM NaCl, 8.7% glycerol, 0.1% Tween20); five washes; SDS-PAGE, Coomassie staining. The conditions noted are these: both partners purified.
Data set [5] deals with T2, N-terminally His-tagged hRRP7 (human, UniProt Q9Y3A4 1-280).
T2 construct: hRRP7, human; open reading frame amplified from human cDNA; The legend says that C-terminally truncated forms of the His-tagged hRRP7 protein were also present in the preparation; not shown: His tag, N-terminal, kept
T2 sequence (looked up): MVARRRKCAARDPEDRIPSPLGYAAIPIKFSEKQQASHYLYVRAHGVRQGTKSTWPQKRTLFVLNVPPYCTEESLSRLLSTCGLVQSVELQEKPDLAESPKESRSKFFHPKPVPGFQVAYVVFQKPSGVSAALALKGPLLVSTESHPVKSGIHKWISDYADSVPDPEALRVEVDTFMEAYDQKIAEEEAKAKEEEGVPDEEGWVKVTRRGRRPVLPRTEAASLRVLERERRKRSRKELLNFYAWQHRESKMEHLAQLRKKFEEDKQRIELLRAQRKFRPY
Description: pull-down; GST-tagged hUTP23 immobilised on glutathione sepharose (pre-blocked with BSA), incubated with N-terminally His-tagged recombinant human proteins for 1 h at 4°C in Buffer NB (20 mM Tris/HCl pH 7.6, 150 mM NaCl, 8.7% glycerol, 0.1% Tween20); five washes; SDS-PAGE, immunoblotting with anti-His and anti-GST antibodies. Particulars: both partners purified.

For the data set “GST-tagged human hUTP23”, the target named is B2. Described as above. Particulars: both partners purified.
Another data set addresses T3, GST-tagged yeast yUtp23 (S. cerevisiae, UniProt Q12339 1-254).
T3 construct: yUtp23, S. cerevisiae; open reading frame amplified from yeast genomic DNA; also called GST-yUtp23
T3 sequence (looked up): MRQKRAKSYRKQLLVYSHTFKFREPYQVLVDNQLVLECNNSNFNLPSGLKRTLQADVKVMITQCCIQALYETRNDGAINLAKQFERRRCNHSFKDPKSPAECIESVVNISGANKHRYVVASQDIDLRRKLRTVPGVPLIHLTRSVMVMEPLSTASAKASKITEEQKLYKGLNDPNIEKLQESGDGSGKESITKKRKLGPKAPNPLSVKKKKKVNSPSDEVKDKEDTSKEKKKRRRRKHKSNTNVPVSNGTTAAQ
The experiment in a line: pull-down; GST-tagged yeast bait proteins immobilised on glutathione sepharose (pre-blocked with BSA), incubated with recombinant protein-A-His-tagged yUtp23 for 1 h at 4°C in Buffer NB (20 mM Tris/HCl pH 7.6, 150 mM NaCl, 8.7% glycerol, 0.1% Tween20); five washes; SDS-PAGE, Coomassie staining. The conditions noted are these: both partners purified.

The target in a further data set is T4, GST-tagged yeast yRrp7 (S. cerevisiae, UniProt P25368 1-297).
T4 construct: yRrp7, S. cerevisiae; open reading frame amplified from yeast genomic DNA; also called GST-yRrp7
T4 sequence (looked up): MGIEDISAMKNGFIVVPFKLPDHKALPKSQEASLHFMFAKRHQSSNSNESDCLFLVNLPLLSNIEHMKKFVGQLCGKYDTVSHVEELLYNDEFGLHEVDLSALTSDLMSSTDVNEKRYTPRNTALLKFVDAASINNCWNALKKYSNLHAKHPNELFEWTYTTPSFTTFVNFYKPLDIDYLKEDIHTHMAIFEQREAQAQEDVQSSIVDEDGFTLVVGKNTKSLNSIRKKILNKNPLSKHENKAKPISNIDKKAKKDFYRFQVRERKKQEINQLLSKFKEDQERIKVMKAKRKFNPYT
The description is as above. Particulars: both partners purified.

As a reminder, the Kd is the concentration at which binding is half-saturated.

snR30 full length (nt 1-606): in data set [1], the Kd came to 300 nM.

For “GGGUAGGACGCAUGAUCUUGAGCUCUUUUCCUAUACUUUGUCCUAUGGCCAGCUUUCUCCUUAUUACGAAGAGAUUGCGGGAUGUGGGUGCAGAGUGGGAAAAUCUGAGUUCGGUCAUCUUUGUUGUUCGUCCUAC [snR30 IH (nt 398-531)]”, the binding result in data set [2] is reported as “no binding”.

On to “GGGUAGGACGCAUGAUCUUGAGCUCUUUUCCUAUACUUUGUCCUAUGGCCAGCUUUCUCCUUAUUACGAAGAGAUUGCGGGAUGUGGGUGCAGAGUGGGAAAAUCUGAGUUCGGUCAUCUUUGUUGUUCGUCCUACCGCAGUAUAUUCCUAAACACUAUGAAAUGACCCUAGUUGGUCCAUGAUCAUUUGGGUAAAACCAUACUGCAGACAUCU [snR30 IH + 3' HP (nt 398-606)]”, for which, in data set [2], the binding result is reported as “binds more weakly”.

For the molecule “GGCCGCAGUAUAUUCCUAAACACUAUGAAAUGACCCUAGUUGGUCCAUGAUCAUUUGGGUAAAACCAUACUGCAGACAUCU [snR30 3' HP (nt 531-606)]”, the binding entry in data set [2] is “no binding”.

With “GGCGUAUUGCUCGAAUAUAUUAGCAUGGAAUAAUAGAAUAGGACGUUUGGUUCUAUUUUGUUGGUUUCUAGGACCAUCGUAAUGAUUAAUAGGGACGGUCGGGGGCAUCAGUAUUCAAUUGUCAGAGGUGAAAUUCUUGGAUUUAUUGAAGACUAACUACUGCGAAAGCAUUUGCCAAGGACGUUUUCA [18S rRNA ES6 fragment (nt 775-963, RNA A)]”, in data set [3], the binding entry is “binds”.

B1: GST-tagged yeast yUtp24 (natural protein, S. cerevisiae, UniProt Q05498 1-189, looked up)
chain: MGKAKKTRKFGLVKRTLNTKKDQRLKKNQENIKTKEDPELTRNIPQVSSALFFQYNQAIKPPYQVLIDTNFINFSIQKKVDIVRGMMDCLLAKCNPLITDCVMAELEKLGPKYRIALKLARDPRIKRLSCSHKGTYADDCLVHRVLQHKCYIVATNDAGLKQRIRKIPGIPLMSVGGHAYVIEKLPDVF
notes: yUtp24/Fcf1, S. cerevisiae; open reading frame amplified from yeast genomic DNA; also called Fcf1; yUtp24(Fcf1)
Consider B1, for which the binding result in data set [4] is “binds”.

Consider B2, for which the binding result in data set [5] is “binds”.

B3: N-terminally His-tagged hUTP24 (natural protein, human, UniProt Q9Y324 1-198, looked up)
chain: MGKQKKTRKYATMKRMLSLRDQRLKEKDRLKPKKKEKKDPSALKEREVPQHPSCLFFQYNTQLGPPYHILVDTNFINFSIKAKLDLVQSMMDCLYAKCIPCITDCVMAEIEKLGQKYRVALRIAKDPRFERLPCTHKGTYADDCLVQRVTQHKCYIVATVDRDLKRRIRKIPGVPIMYISNHRYNIERMPDDYGAPRF
notes: hUTP24 (human homologue of yUtp24/Fcf1); open reading frame amplified from human cDNA; not shown: His tag, N-terminal, kept
Take B3: in the data set with GST-tagged human hUTP23, the binding result is given as “binds”.

B4: N-terminally His-tagged hNHP2 (natural protein, human, UniProt Q9NX24 1-153, looked up)
chain: MTKIKADPDGPEAQAEACSGERTYQELLVNQNPIAQPLASRRLTRKLYKCIKKAVKQKQIRRGVKEVQKFVNKGEKGIMVLAGDTLPIEVYCHLPVMCEDRNLPYVYIPSKTDLGAAAGSKRPTCVIMVKPHEEYQEAYDECLEEVQSLPLPL
notes: core box H/ACA protein hNHP2, human; open reading frame amplified from human cDNA; not shown: His tag, N-terminal, kept
For B4, the binding result with GST-tagged human hUTP23 is “binds”.

For B5, the binding result with GST-tagged yeast yUtp23 and in the data set with GST-tagged yeast yRrp7 was “binds” each time.
